# Data published in US20220048993A1 (published 2022).
# T1: human FcRH3 (BIACORE analyte) (human, UniProt Q96P31 18-573)
# T1 chain: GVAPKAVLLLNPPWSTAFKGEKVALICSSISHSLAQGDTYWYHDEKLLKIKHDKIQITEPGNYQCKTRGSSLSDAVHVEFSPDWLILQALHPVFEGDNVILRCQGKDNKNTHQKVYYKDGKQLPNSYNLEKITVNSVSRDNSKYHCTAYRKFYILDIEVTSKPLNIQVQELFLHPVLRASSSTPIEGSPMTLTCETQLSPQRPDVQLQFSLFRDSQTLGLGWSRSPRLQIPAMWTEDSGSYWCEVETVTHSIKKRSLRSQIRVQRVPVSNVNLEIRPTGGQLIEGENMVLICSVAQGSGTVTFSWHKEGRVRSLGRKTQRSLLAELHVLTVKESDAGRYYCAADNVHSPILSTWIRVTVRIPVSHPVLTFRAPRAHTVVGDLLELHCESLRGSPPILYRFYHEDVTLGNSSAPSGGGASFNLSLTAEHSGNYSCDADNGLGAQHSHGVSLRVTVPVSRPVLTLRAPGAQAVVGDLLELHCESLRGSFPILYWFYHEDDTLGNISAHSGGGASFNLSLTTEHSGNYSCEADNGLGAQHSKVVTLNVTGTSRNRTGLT
# T2: soluble cynomolgus FcRH5 protein fragment
# T2 chain: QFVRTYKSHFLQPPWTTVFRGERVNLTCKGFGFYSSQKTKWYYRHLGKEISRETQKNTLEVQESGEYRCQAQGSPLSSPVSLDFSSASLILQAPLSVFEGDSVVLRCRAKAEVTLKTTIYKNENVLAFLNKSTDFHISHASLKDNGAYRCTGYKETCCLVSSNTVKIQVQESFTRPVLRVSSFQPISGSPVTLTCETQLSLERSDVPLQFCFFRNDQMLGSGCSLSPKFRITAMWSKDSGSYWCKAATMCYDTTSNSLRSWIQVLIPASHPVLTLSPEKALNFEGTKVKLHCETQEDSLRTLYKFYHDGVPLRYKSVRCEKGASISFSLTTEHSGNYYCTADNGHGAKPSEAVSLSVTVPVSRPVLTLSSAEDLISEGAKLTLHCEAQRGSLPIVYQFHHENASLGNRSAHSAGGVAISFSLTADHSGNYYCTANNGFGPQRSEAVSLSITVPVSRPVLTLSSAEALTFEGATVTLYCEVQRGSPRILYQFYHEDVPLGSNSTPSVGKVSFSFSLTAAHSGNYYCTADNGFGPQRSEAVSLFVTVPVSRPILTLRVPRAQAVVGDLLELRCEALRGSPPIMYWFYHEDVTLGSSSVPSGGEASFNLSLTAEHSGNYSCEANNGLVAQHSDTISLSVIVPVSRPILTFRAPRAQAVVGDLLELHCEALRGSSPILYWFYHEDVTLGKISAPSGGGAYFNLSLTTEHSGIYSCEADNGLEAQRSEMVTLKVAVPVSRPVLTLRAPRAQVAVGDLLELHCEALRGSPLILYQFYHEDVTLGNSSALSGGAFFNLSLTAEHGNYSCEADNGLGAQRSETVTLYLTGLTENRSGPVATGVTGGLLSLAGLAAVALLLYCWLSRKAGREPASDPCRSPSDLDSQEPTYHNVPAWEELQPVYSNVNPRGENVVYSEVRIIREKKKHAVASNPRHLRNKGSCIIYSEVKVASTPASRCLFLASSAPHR
# T3: soluble human FcRH5 protein fragment (UniProt Q96RD9 16-851)
# T3 chain: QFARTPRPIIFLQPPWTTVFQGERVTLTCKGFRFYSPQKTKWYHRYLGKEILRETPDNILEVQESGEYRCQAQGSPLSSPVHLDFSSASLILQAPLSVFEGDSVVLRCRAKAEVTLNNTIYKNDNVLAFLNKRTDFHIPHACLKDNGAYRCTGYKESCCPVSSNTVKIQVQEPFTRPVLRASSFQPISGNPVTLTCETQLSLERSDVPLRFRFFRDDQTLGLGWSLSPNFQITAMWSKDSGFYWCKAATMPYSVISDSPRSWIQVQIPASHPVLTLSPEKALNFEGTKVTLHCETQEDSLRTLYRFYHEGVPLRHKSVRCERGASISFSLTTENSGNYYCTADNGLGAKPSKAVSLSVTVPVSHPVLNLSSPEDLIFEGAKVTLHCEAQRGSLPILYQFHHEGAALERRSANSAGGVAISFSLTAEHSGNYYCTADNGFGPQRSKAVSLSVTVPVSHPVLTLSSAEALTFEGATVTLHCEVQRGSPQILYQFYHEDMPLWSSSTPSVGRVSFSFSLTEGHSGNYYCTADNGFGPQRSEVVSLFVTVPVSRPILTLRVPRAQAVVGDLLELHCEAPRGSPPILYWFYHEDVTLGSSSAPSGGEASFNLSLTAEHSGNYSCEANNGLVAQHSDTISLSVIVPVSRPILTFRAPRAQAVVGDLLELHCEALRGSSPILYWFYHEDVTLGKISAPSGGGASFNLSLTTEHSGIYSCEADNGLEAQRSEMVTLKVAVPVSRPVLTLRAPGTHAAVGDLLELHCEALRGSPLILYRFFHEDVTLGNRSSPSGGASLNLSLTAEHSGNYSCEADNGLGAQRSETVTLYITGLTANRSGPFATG
# Tests used:
# 7D8.RbIgG = assay: SPR; 25 °C
# [1] = molecular target: T1, human FcRH3 (BIACORE analyte); assay: SPR (1:1 binding); 25 °C
# [2] = molecular target: T2, soluble cynomolgus FcRH5 protein …; assay: SPR; 25 °C
# [3] = molecular target: T3, soluble human FcRH5 protein fragment; assay: SPR; 25 °C
# [4] = molecular target: T3, soluble human FcRH5 protein fragment; assay: SPR
binder,measurement,setting,value
Human FcRH5 (receptor) QFARTPRPIIFLQPPWTTVFQGERVTLTCKGFRFYSPQKTKWYHRYLGKEILRETPDNILEVQESGEYRCQAQGSPLSSPVHLDFSSASLILQAPLSVFEGDSVVLRCRAKAEVTLNNTIYKNDNVLAFLNKRTDFHIPHACLKDNGAYRCTGYKESCCPVSSNTVKIQVQEPFTRPVLRASSFQPISGNPVTLTCETQLSLERSDVPLRFRFFRDDQTLGLGWSLSPNFQITAMWSKDSGFYWCKAATMPYSVISDSPRSWIQVQIPASHPVLTLSPEKALNFEGTKVTLHCETQEDSLRTLYRFYHEGVPLRHKSVRCERGASISFSLTTENSGNYYCTADNGLGAKPSKAVSLSVTVPVSHPVLNLSSPEDLIFEGAKVTLHCEAQRGSLPILYQFHHEGAALERRSANSAGGVAISFSLTAEHSGNYYCTADNGFGPQRSKAVSLSVTVPVSHPVLTLSSAEALTFEGATVTLHCEVQRGSPQILYQFYHEDMPLWSSSTPSVGRVSFSFSLTEGHSGNYYCTADNGFGPQRSEVVSLFVTVPVSRPILTLRVPRAQAVVGDLLELHCEAPRGSPPILYWFYHEDVTLGSSSAPSGGEASFNLSLTAEHSGNYSCEANNGLVAQHSDTISLSVIVPVSRPILTFRAPRAQAVVGDLLELHCEALRGSSPILYWFYHEDVTLGKISAPSGGGASFNLSLTTEHSGIYSCEADNGLEAQRSEMVTLKVAVPVSRPVLTLRAPGTHAAVGDLLELHCEALRGSPLILYRFFHEDVTLGNRSSPSGGASLNLSLTAEHSGNYSCEADNGLGAQRSETVTLYITGLTANRSGPFATG,Kd,7D8.RbIgG,0.403 nM
"1G7.v1.4/38E4.v1 TDB (bispecific antibody, V domains shown) VH 1: EVQLVESGPGLVKPSETLSLTCTVSGFSLTRFGVHWVRQPPGKGLEWLGVIWRGGSTDYNAAFMSRLTISKDNSKNQVSLKLSSVTAADTAVYYCSNHYYGSSDYALDNWGQGTLVTVSS VL 1: DIQMTQSPSSLSASVGDRVTITCKASQDVRNLVVWFQQKPGKAPKLLIYSGSYRYSGVPSRFSGSGSGTDFTLTISSLQPEDFATYYCQQHYSPPYTFGQGTKVEIK VH 2: EVQLVQSGAEVKKPGASVKVSCKASGFTFTSYYIHWVRQAPGQGLEWIGWIYPENDNTKYNEKFKDRVTITADTSTSTAYLELSSLRSEDTAVYYCARDGYSRYYFDYWGQGTLVTVSS VL 2: DIVMTQSPDSLAVSLGERATINCKSSQSLLNSRTRKNYLAWYQQKPGQSPKLLIYWTSTRKSGVPDRFSGSGSGTDFTLTISSLQAEDVAVYYCKQSFILRTFGQGTKVEIK",Kd,[1],76.5 nM
h7D8.L1H2 (antibody) chain 1: EVQLVESGGGLVQPGGSLRLSCAVSGIDLSSYAMGWVRQAPGKGLEWIGTIGTGGTPYYASWAKGRFTISKDSSKNTVYLQMNSLRAEDTAVYFCARDMYTGSIYYDMWGQGTLVTVSS chain 2: DAQLTQSPSSLSASVGDRVTITCQSSQSVFNNAQLSWYQQKPGKPPKLLIYDTSNLASGVPSRFSGSGSGTDFTLTISSLQPEDFATYYCLGAYTDDADNAFGQGTKVEIK,Kd,[2],4.97 nM
same,Kd,[3],1.26 nM
Cyno FcRH5 (receptor) QFVRTYKSHFLQPPWTTVFRGERVNLTCKGFGFYSSQKTKWYYRHLGKEISRETQKNTLEVQESGEYRCQAQGSPLSSPVSLDFSSASLILQAPLSVFEGDSVVLRCRAKAEVTLKTTIYKNENVLAFLNKSTDFHISHASLKDNGAYRCTGYKETCCLVSSNTVKIQVQESFTRPVLRVSSFQPISGSPVTLTCETQLSLERSDVPLQFCFFRNDQMLGSGCSLSPKFRITAMWSKDSGSYWCKAATMCYDTTSNSLRSWIQVLIPASHPVLTLSPEKALNFEGTKVKLHCETQEDSLRTLYKFYHDGVPLRYKSVRCEKGASISFSLTTEHSGNYYCTADNGHGAKPSEAVSLSVTVPVSRPVLTLSSAEDLISEGAKLTLHCEAQRGSLPIVYQFHHENASLGNRSAHSAGGVAISFSLTADHSGNYYCTANNGFGPQRSEAVSLSITVPVSRPVLTLSSAEALTFEGATVTLYCEVQRGSPRILYQFYHEDVPLGSNSTPSVGKVSFSFSLTAAHSGNYYCTADNGFGPQRSEAVSLFVTVPVSRPILTLRVPRAQAVVGDLLELRCEALRGSPPIMYWFYHEDVTLGSSSVPSGGEASFNLSLTAEHSGNYSCEANNGLVAQHSDTISLSVIVPVSRPILTFRAPRAQAVVGDLLELHCEALRGSSPILYWFYHEDVTLGKISAPSGGGAYFNLSLTTEHSGIYSCEADNGLEAQRSEMVTLKVAVPVSRPVLTLRAPRAQVAVGDLLELHCEALRGSPLILYQFYHEDVTLGNSSALSGGAFFNLSLTAEHGNYSCEADNGLGAQRSETVTLYLTGLTENRSGPVATGVTGGLLSLAGLAAVALLLYCWLSRKAGREPASDPCRSPSDLDSQEPTYHNVPAWEELQPVYSNVNPRGENVVYSEVRIIREKKKHAVASNPRHLRNKGSCIIYSEVKVASTPASRCLFLASSAPHR,Kd,7D8.RbIgG,1.89 nM
"hu1G7.v93/38E4.v1 TDB (bispecific antibody, V domains shown) VH 1: EVQLVESGPGLVKPSETLSLTCTVSGFSTTRFGVHWVRQPPGKGLEWLGVIWRGGSTDYNAAFVSRLTISKDNSKNQVSLKLSSVTAADTAVYYCSNHYYGSPDYALDNWGQGTLVTVSS VL 1: DIQMTQSPSSLSASVGDRVTITCKASQDVSNLVVWFQQKPGKAPKLLIYSGSYRYSGVPSRFSGSGSGTDFTLTISSLQPEDFATYYCQQHYSPPYTFGQGTKVEIK VH 2: EVQLVQSGAEVKKPGASVKVSCKASGFTFTSYYIHWVRQAPGQGLEWIGWIYPENDNTKYNEKFKDRVTITADTSTSTAYLELSSLRSEDTAVYYCARDGYSRYYFDYWGQGTLVTVSS VL 2: DIVMTQSPDSLAVSLGERATINCKSSQSLLNSRTRKNYLAWYQQKPGQSPKLLIYWTSTRKSGVPDRFSGSGSGTDFTLTISSLQAEDVAVYYCKQSFILRTFGQGTKVEIK",Kd,[4],1.07 nM
